What was measured:
[1] = target: T1, variant nuclease D55G/E736G combination (P14R, D32R, I61R, E311R, D55G, E736G); assay: cell_activity; PAM 5'-TTTG-3'; conditions: tags: pcDNA3.1 expression
T1 chain: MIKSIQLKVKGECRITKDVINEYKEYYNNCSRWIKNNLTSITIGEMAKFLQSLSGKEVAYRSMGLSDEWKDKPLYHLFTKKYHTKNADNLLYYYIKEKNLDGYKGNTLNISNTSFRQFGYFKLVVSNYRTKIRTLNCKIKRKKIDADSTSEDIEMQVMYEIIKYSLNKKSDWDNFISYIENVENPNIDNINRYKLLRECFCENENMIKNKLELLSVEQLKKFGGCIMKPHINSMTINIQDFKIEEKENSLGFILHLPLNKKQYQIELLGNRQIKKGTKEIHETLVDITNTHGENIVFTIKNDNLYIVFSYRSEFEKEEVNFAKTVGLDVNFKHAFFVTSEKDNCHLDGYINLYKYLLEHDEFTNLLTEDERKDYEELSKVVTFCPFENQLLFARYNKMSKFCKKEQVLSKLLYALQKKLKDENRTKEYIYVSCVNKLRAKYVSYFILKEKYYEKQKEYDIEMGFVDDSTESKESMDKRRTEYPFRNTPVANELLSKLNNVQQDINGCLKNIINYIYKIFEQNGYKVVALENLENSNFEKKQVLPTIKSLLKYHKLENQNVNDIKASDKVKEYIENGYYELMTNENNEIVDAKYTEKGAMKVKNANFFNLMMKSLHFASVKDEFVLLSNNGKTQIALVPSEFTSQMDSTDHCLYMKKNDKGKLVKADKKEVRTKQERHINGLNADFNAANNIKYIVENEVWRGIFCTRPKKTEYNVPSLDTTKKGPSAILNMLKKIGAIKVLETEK
Procedure: (§1) Approximately 16 hours prior to transfection, 25,000 HEK293T cells in DMEM/10% FBS+Pen/Strep (D10 media) were plated into each well of a 96-well plate. On the day of transfection, the cells were 70-90% confluent. For each well to be transfected, a mixture of Lipofectamine 2000™ and Opti-MEM™ was prepared and incubated at room temperature for 5 minutes (Solution 1). After incubation, the Lipofectamine 2000™:Opti-MEM™ mixture was added to a separate mixture containing nuclease plasmid, RNA guide plasmid, and Opti-MEM™ (Solution 2). In the case of negative controls, the RNA guide plasmid was not included in Solution 2. Solutions 1 and 2 were mixed by pipetting up and down, then incubated at room temperature for 25 minutes. Following incubation, the Solution 1 and 2 mixture was added dropwise to each well of a 96-well plate containing the cells. Approximately 72 hours post transfection, cells were trypsinized by adding TrypLE™ to the center of each well and incubating at 37° C. for approximately 5 minutes. D10 media was then added to each well and mixed to resuspend cells. The resuspended cells were centrifuged at 500 g for 10 minutes to obtain a pellet, and the supernatant was discarded. The cell pellet was then resuspended in QuickExtract™ buffer (Lucigen®), and cells were incubated at 65° C. for 15 minutes, 68° C. for 15 minutes, and 98° C. for 10 minutes.
(§2) This Example describes assessment of indel activity at multiple target sites using the wild-type polypeptide of SEQ ID NO: 3 or variant polypeptides of Table 4. The variant polypeptides were cloned into a pcDNA3.1 backbone (Invitrogen), and the cells were transfected as described in Example 7.
(§3) The percentage of NGS reads containing indels (% indels) were calculated. For each variant polypeptide and target, % indels were averaged across two bioreplicates and two technical replicates. These values were then compared to % indels of the wild-type polypeptide of SEQ ID NO: 3.

[2] = target: T2, variant nuclease E736G combination (P14R, D32R, I61R, E311R, E736G); assay: cell_activity; PAM 5'-TTTG-3'; conditions: tags: pcDNA3.1 expression
T2 chain: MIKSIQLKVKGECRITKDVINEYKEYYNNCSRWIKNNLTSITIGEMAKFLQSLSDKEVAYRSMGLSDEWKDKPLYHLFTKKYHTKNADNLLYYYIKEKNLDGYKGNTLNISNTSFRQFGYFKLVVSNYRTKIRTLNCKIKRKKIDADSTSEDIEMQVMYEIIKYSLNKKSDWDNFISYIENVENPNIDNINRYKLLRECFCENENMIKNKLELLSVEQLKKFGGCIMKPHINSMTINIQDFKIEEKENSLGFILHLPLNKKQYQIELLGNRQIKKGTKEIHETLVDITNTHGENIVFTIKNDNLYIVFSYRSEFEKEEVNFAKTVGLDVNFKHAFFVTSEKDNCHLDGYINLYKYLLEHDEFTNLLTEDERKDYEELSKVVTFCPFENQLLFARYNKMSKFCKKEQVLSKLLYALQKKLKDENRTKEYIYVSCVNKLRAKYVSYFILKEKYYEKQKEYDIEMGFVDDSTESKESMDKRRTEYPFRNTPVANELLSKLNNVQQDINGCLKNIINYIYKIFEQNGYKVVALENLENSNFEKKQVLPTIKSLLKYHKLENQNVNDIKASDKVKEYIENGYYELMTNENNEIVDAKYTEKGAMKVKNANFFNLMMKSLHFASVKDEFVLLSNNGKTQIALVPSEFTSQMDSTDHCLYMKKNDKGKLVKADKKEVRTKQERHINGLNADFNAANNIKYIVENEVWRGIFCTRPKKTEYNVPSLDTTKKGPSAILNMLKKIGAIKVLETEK
Procedure: as §1, §2, §3

B1: AAVS1 crRNA ; AAVS1 target (ssRNA ; dsDNA)
RNA: CUUGUUGUAUAUGUCCUUUUAUAGGUAUUAAACAACUGAGAAUGGUGCGUCCUAGG
DNA 1: TGAGAATGGTGCGTCCTAGG
DNA 2: CCTAGGACGCACCATTCTCA
B1 was tested, and the indel activity [1] was 5.76 fold of WT and the indel activity [2] was 5.28 fold of WT.
